Five molecules from paper PMC11358003, “A bispecific antibody approach for the potential prophylactic treatment of inherited bleeding disorders” (Nature Cardiovascular Research, 2024) can be followed below.

Several values for one entry are separate records, joined by “and”; a condition that tells them apart may be missing. Equal entries are not always repeated. Where two headings read alike, the source gives them in different places.

What is called Kd is the equilibrium constant for the complex coming apart. As usually defined, the koff is a measure of how fast the partners let go of each other. The kon is the rate constant with which the complex forms.

Experiment [1] deals with recombinant activated coagulation factor VII (rFVIIa, NovoSeven) (Homo sapiens) (UniProt P08709). Kind of experiment: SPR; Biacore 8K, 25 °C; FVIIa or FVII (2.5 nM) captured on immobilised anti-FVII IgG1 (against the Gla domain) on a CM4 chip; HMB-001 0-4 nM injected; 10 mM HEPES, 150 mM NaCl, 0.05% polysorbate 20, pH 7.4, 5 mM CaCl2, 1 mg/ml BSA; Langmuir 1:1 kinetics; n = 2.

Experiment [2] concerns the target recombinant zymogen FVII (Homo sapiens) (UniProt P08709). Described as above.
Experiment [3] has the same target. Kind of experiment: SPR; Biacore 8K, 25 °C; FVIIa or FVII (2.5 nM) captured on immobilised anti-FVII IgG1 (CaFVII-22, against the Gla domain; CM4 chip); HMB-001 (0-4 nM) injected; 10 mM HEPES, 150 mM NaCl, 0.05% polysorbate 20, pH 7.4, 5 mM CaCl2, 1 mg/ml BSA; Langmuir 1:1 kinetics model; n = 2.
For experiment [4], the target named is recombinant activated coagulation factor VII (Homo sapiens) (UniProt P08709). The description is as above.
For experiment [5], the target named is soluble extracellular fragment of TREM-like transcript-1 (Homo sapiens (Human).) (UniProt Q86YW5). Nature of the experiment: SPR; Biacore 8K, 25 °C; biAb (0.5-4 nM) captured on immobilised anti-human IgG (CM4 chip); FVIIa (0-4 nM) or sTLT-1 (0-60 μM) injected; 10 mM HEPES, 150 mM NaCl, 0.05% polysorbate 20, pH 7.4, 5 mM CaCl2, 1 mg/ml BSA; Langmuir 1:1 kinetics model; n = 2. (In general: Surface plasmon resonance follows binding to a sensor surface in real time, without labels.)

Experiment [6] deals with soluble extracellular fragment of TLT-1 (sTLT-1) (human) (UniProt Q86YW5). Kind of experiment: SPR; Biacore 8K, 25 °C; biAb (0.5-4 nM) captured on immobilised anti-human IgG on a CM4 chip; FVIIa (0-4 nM) or sTLT-1 (0-60 μM) injected; 10 mM HEPES, 150 mM NaCl, 0.05% polysorbate 20, pH 7.4, 5 mM CaCl2, 1 mg/ml BSA; Langmuir 1:1 kinetics; n = 2.
Experiment [7] deals with soluble extracellular fragment of TREM-like transcript-1 (Homo sapiens (Human).) (UniProt Q86YW5). Kind of experiment: SPR; Biacore 8K, 25 °C; biAb (0.5-4 nM) captured on immobilised anti-human IgG (CM4 chip); FVIIa (0-4 nM) or sTLT-1 (0-60 μM) injected; 10 mM HEPES, 150 mM NaCl, 0.05% polysorbate 20, pH 7.4, 5 mM CaCl2, 1 mg/ml BSA; Langmuir 1:1 kinetics model; n = 2. This is another data set of the same source.

The target in experiment [8] is recombinant activated coagulation factor VII (Homo sapiens) (UniProt P08709). The description is as above.
For experiment [9], the target named is T1, sTLT-1 stalk peptide (37-mer TLT-1 peptide) (human).
T1 construct: TREM-like transcript-1 (TLT-1), amino acids 111-147 of mature TLT-1; numbers count on: the mature protein; Amino acids 7-21 of the peptide are seen in the crystal structure; also called synthetic stalk peptide of TLT-1; source: synthetic peptide
T1 chain: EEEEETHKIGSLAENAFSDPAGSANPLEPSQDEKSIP
Nature of the experiment: crystal structure; gel-filtrated 1:1 Fab-sTLT-1 stalk peptide complex; sitting-drop vapor diffusion at 18 °C; 1 M LiCl, 0.1 M Na citrate-citric acid pH 4.0, 20% PEG 6000; two complexes in the asymmetric unit. The settings on record: both partners purified.

Experiment [10] deals with T2, soluble extracellular fragment of TLT-1 (sTLT-1) (human, UniProt Q86YW5).
T2 construct: TREM-like transcript-1 (TLT-1), amino acids 1-147 of mature TLT-1 (IgV domain 1-110 and stalk 111-147); numbers count on: the mature protein; two amino acid (valine-aspartic acid) linker before the His tag, told in words; source: CHO cells (ExpiCHO), transient transfection, purified (HisTrap); not shown: His tag, C-terminal, kept
Nature of the experiment: SPR; SPR binding assay of the monovalent control antibodies with their antigens; format not told. The settings on record: both partners purified.

Experiment [11] has as its target T3, recombinant activated coagulation factor VII (rFVIIa, NovoSeven) (Homo sapiens, UniProt P08709).
T3 construct: source: bought: NovoSeven, Novo Nordisk
The description is as above. The settings on record: both partners purified.

For experiment [12], the target named is T4, active site-inhibited FVIIa:soluble TF complex (FVIIai:sTF) (human | , UniProt P08709;P13726, active site inhibited with H-D-Phe-Phe-Arg-chloromethyl ketone (FFR-cmk)).
T4 construct: as the light chain of m8: factor VIIa light chain without the N-terminal Gla domain; as the heavy chain of m8: factor VIIa heavy chain (protease domain); as m9: tissue factor, amino acids 1-219; also called FVIIa:sTF complex; source: FVIIai from CHO cells and sTF from Escherichia coli; SEC-purified together with the Fab; copies: + +
Kind of experiment: crystal structure; SEC-purified Fab:FVIIai:sTF complex; sitting-drop vapor diffusion at 18 °C; 0.15 M CsCl, 15% PEG 3350; four complexes in the asymmetric unit. To be noted: both partners purified.

The target of experiment [13] is T5, active site-inhibited FVIIa (FVIIai), prepared from FVIIa-desGLA (Homo sapiens, active site inhibited with H-D-Phe-Phe-Arg-chloromethyl ketone (FFR-cmk)).
T5 construct: source: CHO cells (CHO-EBNA), purified (VIISelect, desalted), then incubated with FFR-cmk
T5 chain 1: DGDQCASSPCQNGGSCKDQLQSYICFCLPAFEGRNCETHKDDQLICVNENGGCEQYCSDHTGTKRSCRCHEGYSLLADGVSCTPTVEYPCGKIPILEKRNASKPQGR
T5 chain 2: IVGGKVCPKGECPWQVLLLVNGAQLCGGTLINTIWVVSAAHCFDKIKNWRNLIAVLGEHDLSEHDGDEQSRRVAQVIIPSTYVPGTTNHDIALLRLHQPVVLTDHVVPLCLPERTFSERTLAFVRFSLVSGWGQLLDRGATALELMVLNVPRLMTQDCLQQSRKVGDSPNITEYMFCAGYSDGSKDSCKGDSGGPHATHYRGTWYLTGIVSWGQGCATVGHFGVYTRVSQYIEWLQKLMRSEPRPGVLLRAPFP
The experiment is described as above. To be noted: both partners purified.

For the molecule HMB-001 (bispecific antibody), the Kd in experiment [1] was 0.37 nM; in experiment [2] it was 0.4 nM; in experiment [3], 0.4 nM; in experiment [4], 0.37 nM; in experiment [5], 2.33 nM and 2.35 nM; in [6], 2.3 nM. Besides, the Kd in experiment [7] turned out to be 2.34 nM; in experiment [8], 0.04 nM. The koff in [3] is 0.000725 s⁻¹; in experiment [4] it was 0.000664 s⁻¹ and 0.000665 s⁻¹ and 0.000666 s⁻¹; in experiment [5] it was 0.00061 s⁻¹ and 0.000672 s⁻¹; in experiment [7] it was 0.000641 s⁻¹; in experiment [8], 0.000127 s⁻¹. Besides, the kon in experiment [3] is 1.83e+06 M⁻¹ s⁻¹ and 1.82e+06 M⁻¹ s⁻¹; in [4], 1.8e+06 M⁻¹ s⁻¹; in [5], 262000 M⁻¹ s⁻¹ and 286000 M⁻¹ s⁻¹; in [7] it was 274000 M⁻¹ s⁻¹; in experiment [8] it was 2.9e+06 M⁻¹ s⁻¹.

B1: anti-TLT-1 Fab fragment of HMB-001 (Fab, V domains shown)
VH: EVQLVESGGGLVQPGGSLRLSCAASGFTFSRYWMTWVRQAPGKGLVWVGEINPDSSTINYAPSVKGRFTISRDNAKNTLYLQMNSLRAEDTAVYYCASGVFTSWGQGTLVTVSS
VL: DIVMTQTPLSSPVTLGQPASISCRSSQSLVHRQGNTYFHWLQQRPGQPPRLLIYKVSNRFSGVPDRFSGSGAGTDFTLKISRVEAEDVGVYYCSQSTHVPYTFGQGTKLEIK
notes: Fab part of the heavy chain of the anti-TLT-1 arm of m1; heavy chain of the Fab in PDB 8CHE; as the light chain of the anti-TLT-1 arm of m1; light chain of the Fab in PDB 8CHE; source: CHO cells, purified (KappaSelect)
Regarding B1, the binding result in [9] is “binds”.

B2: monovalent control antibody with the TLT-1-binding arm of HMB-001 (antibody, V domains shown)
VH: EVQLVESGGGLVQPGGSLRLSCAASGFTFSRYWMTWVRQAPGKGLVWVGEINPDSSTINYAPSVKGRFTISRDNAKNTLYLQMNSLRAEDTAVYYCASGVFTSWGQGTLVTVSS
VL: DIVMTQTPLSSPVTLGQPASISCRSSQSLVHRQGNTYFHWLQQRPGQPPRLLIYKVSNRFSGVPDRFSGSGAGTDFTLKISRVEAEDVGVYYCSQSTHVPYTFGQGTKLEIK
notes: as the heavy chain of the anti-TLT-1 arm of m1 (without DuoBody mutations); Fab part in PDB 8CHE; constant part as in PDB 5DK3; as the light chain of the anti-TLT-1 arm of m1; light chain of the Fab in PDB 8CHE; empty Fc, E216-G446 in EU numbering; About 100 kDa; also called anti-TLT-1 cAb; monovalent cAb; source: DuoBody assembly of the parental anti-TLT-1 antibody with an empty Fc; purified by …
As to B2, in [10], the binding result was “binds”.

B3: monovalent control antibody with the FVIIa-binding arm of HMB-001 (antibody, V domains shown)
VH: QVQLQESGPGLVKPSQTLSLTCTVSGYSISSDSAWSWIRQPPGKGLEWIGYIQYSGSTNYNPSLKSRVTISRDTSKNQFSLKLSSVTAADTAVYYCARSVNYYGNSFAVGYWGQGTLVTVSS
VL: EIVLTQSPATLSLSPGERATLSCRASQGISDYLHWYQQKPGEAPRLLIKYTSQPATGIPARFSGSGSGTDFTLTISSLEPEDFAVYYCQNGHSFPLTFGQGTKLEIK
notes: as the heavy chain of the anti-FVIIa arm of m1; Fab part in PDB 8CN9; constant part as in PDB 5DK3 with the DuoBody mutations (EU numbering); as the light chain of the anti-FVIIa arm of m1; light chain of the Fab in PDB 8CN9; empty Fc, E216-G446 in EU numbering; About 100 kDa; also called anti-FVIIa cAb; monovalent cAb; source: DuoBody assembly of the parental anti-FVIIa antibody with an empty …
Take B3: in experiment [11], the binding result was “binds”.

B4: anti-FVIIa Fab fragment of HMB-001 (Fab, V domains shown)
VH: QVQLQESGPGLVKPSQTLSLTCTVSGYSISSDSAWSWIRQPPGKGLEWIGYIQYSGSTNYNPSLKSRVTISRDTSKNQFSLKLSSVTAADTAVYYCARSVNYYGNSFAVGYWGQGTLVTVSS
VL: EIVLTQSPATLSLSPGERATLSCRASQGISDYLHWYQQKPGEAPRLLIKYTSQPATGIPARFSGSGSGTDFTLTISSLEPEDFAVYYCQNGHSFPLTFGQGTKLEIK
notes: Fab part of the heavy chain of the anti-FVIIa arm of m1; heavy chain of the Fab in PDB 8CN9; as the light chain of the anti-FVIIa arm of m1; light chain of the Fab in PDB 8CN9; also called anti-FVII Fab of HMB-001; source: HEK293 suspension cells (293Expi), transient transfection, purified (MabSelect SuRe)
Consider B4, for which the binding result in experiment [12] and in experiment [13] was “binds” throughout.
